From the RNAGym collection of RNA variant scans (doi:10.1073/pnas.2313332121)

B1: TPR t1 (parent)
chain: GACCAAUCUGCCCUCAGAGCUCGAGAACAUCUUCGGAUGCAGAGGAGGCAGGCUUCGGUGGCGCGAUAGCGCCAACGUCCUCAACCUCCAAUGCAUCCCACCACAUGAUGAUGCCUGAAGAGCCUUGGUUUUUUG

Variants of: B1
Test: polymerase ribozyme fitness, log enrichment relative to wild type (log ratio); higher = more active; in vitro selection for triplet polymerase activity
How it was run: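 Mutant libraries were PCR-built and transcribed for each subunit of a heterodimeric triplet polymerase ribozyme and selected for one round in triplicate at −7 °C, frozen, before gel excision of extended constructs and streptavidin-bead capture. Input and output libraries were Illumina-sequenced, keeping genotypes with ≥10 input reads and ≥1 read per output. Fitness is a logarithmic ratio of genotype to wild-type enrichment, in base 2, using inverse-variance-weighted replicate averages.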

Variant	polymerase ribozyme fitness (log ratio)
GACCAAUCUGCCCUCAAAGCUCGAGAACAUCUUCGGAUGCAGAGGAGGCAGGCUUCGGUGGCGCGAUAGCGCCAACGUCCUCAACCUCCAAUGCAUCCCACCACAUGAUGAUGCCUGAAGAGCCUUCGUUUUUUG [G17A G127C]	-4.54
GACCAAUCUGCCCUCAGAGCUCGAGAACAUCUUCGGAUGCAGAGGAGGCAGGGUUCGGUGGCGCGAUAGCCCCAACGUCCUCAACCUCCAAUGCAUCCCACCACAUGAUGAUGCCUGAAGAGCCUUGGUUUUUUG [C53G G71C]	-0.515
GACCAAUCUGCCCUCAGAGCUCGAGAACAUCUUCGGAUGCAGAGGAGGCAGGCUACGGCGGCGCGAUAGCGCCAACGUCCUCAACCUCCAAUGCAUCCCACCACAUGAUGAUGCCUGAAGAGCCUUGGUUUUUUU [U55A U59C G135U]	-1.36
GACCAAUCUGCCCUCAGAGCUCGAGAACAGCUUCGGAUGCAGAGGAGGCAGGCUUCGGUGGCGCGAUAGCGUCAACGUCAUCAACCUCCAAUGCAUCCCACCACAUGCUGAUGCCUGAAGAGCCUUGGUUUUUUG [U30G C72U C80A A108C]	-2.77
GACCAAUCUGCCCUCAGAGCUCGAGAACAUCUUCGGAUGCUGAGGAGGCAGGGUUCGAUGGCGCGAUAGUGCCAACGUCCUCAACCUCCAAUGCAUCCCACCACAUGAUCAUGCCUGAAGAGCCUUGGUUAUUUG [A41U C53G G58A C70U G110C U131A]	-6.81
GACCAAUCUGCCCUCAGAGCUGGAGAACAUCUUCGGAUGCAGAGGAGGCAGGCUUCGGUGGCGCGAUAGCGCCAACGUCCUCAACAUCCAAUGCAUCCCACCACAUGAUGAUGCCUGAAGAGCCUUGGUUUUUUG [C22G C86A]	-3.83
GACCAAUCUGCCGUCAGAGCUCGAGAACAUCUUCGGAUGGAGAGGAGGCAGGCUUCGGUGGCGCGAUAGCGCCAACGUCCUCAAGCUCGAAUGCAUCCCACCACAUGAUGAUGCCUGAAGAGGCUUGGUUUUUUG [C13G C40G C85G C89G C123G]	-4.99
GACCAAUCUGCGCUCAGAGCUCGAGAACAUCUUCGGAUGCAGAGGAGGCAGGCUUCGGUGACGCGAUAGCGCCAACGUCCUCAACCUCCAAUGCAUCCCACCACAUGAUGAUGCCUGAAGAGCCUUGGUUUUUUG [C12G G61A]	0.388
GACUAAUCUGCCCUCAGAGCUCGAGAACAUCUUCGGAUGCAGCGAAGGCAGGCUUCGGUGGCGCGAUAUCGCCAACGUCCUCAACCUCCAAUGCAUCCCACCACAUGAUGAUGCCUGAAGAGCAUUGGUUUUUUG [C4U A43C G45A G69U C124A]	0.59
GACCAAUCUGCCCUCAGAGCUCGAGAACAUCUUCGGAUGCAGAGGAGGCAGGCUUCGGUGGCGCGAUAGCGCCAACGCCCUCAACCUCCAAUGCAUCCCACCACAUGAUGAUGCCUGAAGAGCUUUGGUUUUUUG [U78C C124U]	1.72
GACCAAUCUGCCCUCAGAGCUCGAGAACAUCUUCGGAUGCAGAGGAGGCAGGCUUCGGUGGCGCGAUAUCGCCAACGUCCUCAACCUACAAUGCAUCCCACCACAUGAUGAUGCCUGAAGAGCCUUGGUUUUUUG [G69U C88A]	0.231
GACCAAUCUGCACUCAGAGCUCGAGAACAUCUUCGGAUGCAGGGGAGGCAGGCUUCGGUGGCGCGAUAGAGCCAACGUCCACAACCUCCAAUGCAUCCCACCACAUGAUGAUGCCUGAAUAGCCUUGGUUUUUUG [C12A A43G C70A U81A G120U]	-5.53
GACCAAUCUGGCCUCAGAGCUCGAGAACAUCUUCGGAUGCAUAGGAGGCAGGCUUCGGUGGCGCGAUAGCGCCAACGUCCUCAACCUCCAAUGCAUCCCACCACAUGAUGAUGCCUGAAGAGCCUUGGUUUUUUG [C11G G42U]	-0.866
GACCAAUCUGCCCUCAGAGCUCGAGAACAUCUUGGGAUGCAGAGGAGGCAGGCUUCGGUGGCGCGAUAGCGCCAACGUCCUCAACUUCCAAUGCAUCCCACCACAUGAUGAUGCCUGAAGAGCCUUGGUUUUUUG [C34G C86U]	-6.51
GGCCAAUCUGCCCUCAGAGCUCGAGAACAUCUUCGGAUGCAGAGGAGGCAGGCUUCGGUGGUGCGAUAGCGCCAACGUCCUCAACCUCCAAUGCAUCCCACCACAUGAUAAUGGCUGAAGAGCAUUGGUUUUUUG [A2G C62U G110A C114G C124A]	-7.09
GACCAAUCUGCCCUCAGAGCUCGAGAACAUCUUCGGAUGCAGAGGAGGCAGGCUUCGGUGGCGCGAUAGCGCCAACGUCCUCAACCUCCAAUGCAUCCCACCACAUGAUUAUGCCUGAACAGCCUUAUUUUUUUG [G110U G120C G127A G128U]	-4.38
GACCAAUCUGCCCUCAGAGCUCGAGAUCGUCUUCGGAUGCAGAGGAGGCAGGCUUCGGUGGCGCGAUAGCGACAACGUCCUCAACCUCCAAUGCAUCCCACCACAUGAUGAUGCCUGAAGAGCCUUGGUUUUUUG [A27U A29G C72A]	-2.36
GACCAAUCUGCACUCAGAGCUCGAGAACAUCUUCGGAUGCAGAGGAGGCAGGCUUCAGUAGCGCGAUAGCGCCAACGUCCUCAACCUCCAAUGCAUCCCACCACAUGAUGAUGCCUGAAGAGCCUUGGUUUUUUG [C12A G57A G60A]	-0.307
GACCAAUCUGCCCUCAGAGCUCGAGAACAUCUUCGGAUGCAGAGGAGGCAGGUUUCGGUGGCGCGAUAGCGCCAACGUGCUCAACCUCCAAUGCAUCCCACCACAUGAUGAUCCCUGAAGAGCCUUGGUUUUUUG [C53U C79G G113C]	-3.6
GACCAAUCUGCCAUCAGAGCGCGAGAACAUCUUCGGAUGCAGAGGAGGCAGGCUUCGGUGGCACGAUAGCGCCAACGUCCUCAACCUCCAAUGCAUCCCACCACAUGAUGAUGCCUGAAGAGCCUUGGUUUUUUG [C13A U21G G63A]	-4.73
GACCAAUCUGCCCUCAGAGCUCGAGAACAUCUUCGGAUGCAGAGGGGGCAGGCUUCGGUGGCGCGAUAGCGCCAACGUACUCAACCUCCAUUGCAUCCCACCACUUGAUGAUGCCUGAAGAGCAAUGGUUUUUUG [A46G C79A A91U A105U C124A U125A]	-6.73
